Source: PMC10505908

Assays:
[1] = biological target: T1, HMCES SRAP R98E R98E (human) (UniProt Q96FZ2); assay: covalent DPC formation, SDS-PAGE; settings: N15 = AP site from dU by UDG
T1 sequence: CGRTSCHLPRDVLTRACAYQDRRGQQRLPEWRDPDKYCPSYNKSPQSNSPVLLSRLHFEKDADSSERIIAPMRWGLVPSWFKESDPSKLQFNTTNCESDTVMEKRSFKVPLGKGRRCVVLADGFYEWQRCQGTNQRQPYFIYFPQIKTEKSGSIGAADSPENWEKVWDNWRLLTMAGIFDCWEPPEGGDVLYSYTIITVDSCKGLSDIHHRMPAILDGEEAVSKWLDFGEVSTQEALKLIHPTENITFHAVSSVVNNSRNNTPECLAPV

[2] = biological target: T2, HMCES SRAP E127A E127A (human) (UniProt Q96FZ2); assay: covalent DPC formation, SDS-PAGE; settings: N15 = AP site from dU by UDG
T2 sequence: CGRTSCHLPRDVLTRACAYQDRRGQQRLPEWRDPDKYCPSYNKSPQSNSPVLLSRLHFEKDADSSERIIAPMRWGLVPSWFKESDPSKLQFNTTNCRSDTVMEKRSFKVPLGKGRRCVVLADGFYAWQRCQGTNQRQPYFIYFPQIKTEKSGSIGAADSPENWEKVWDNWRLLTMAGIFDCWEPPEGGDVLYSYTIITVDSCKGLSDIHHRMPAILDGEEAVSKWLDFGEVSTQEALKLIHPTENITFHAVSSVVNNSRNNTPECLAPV

HMCES SRAP E127A = biological target: T3, HMCES SRAP E127A (human, UniProt Q96FZ2 2-270, E127A); assay: fluorescence polarization
T3 sequence: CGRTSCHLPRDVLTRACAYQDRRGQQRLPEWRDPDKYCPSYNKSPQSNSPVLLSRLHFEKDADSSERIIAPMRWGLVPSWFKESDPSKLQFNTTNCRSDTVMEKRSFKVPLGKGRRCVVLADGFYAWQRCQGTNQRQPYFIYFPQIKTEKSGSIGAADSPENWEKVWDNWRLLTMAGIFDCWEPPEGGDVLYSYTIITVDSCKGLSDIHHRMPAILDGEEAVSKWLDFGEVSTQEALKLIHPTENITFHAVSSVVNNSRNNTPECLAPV

CCCAAAAAAAAAAANAAAAAAAAAAAACCC / GGGTTTTTTTTTTTTATTTTTTTTTTTGGG [30mer AP site dsDNA]
binding signal (fraction crosslinked) [1]: 0
binding signal (fraction crosslinked) [2]: 0

CCCAAAAAAAAAAATAAAAAAAAAAAACCC (ssDNA) [30mer dT-oligonucleotide]
binding result (HMCES SRAP E127A): binds
